Values of other authors, collected in PMC6235721.

Molecular target: FabI (Escherichia coli) (UniProt P0AEK4)
Chain of UniProt P0AEK4 (P0AEK4 2-262): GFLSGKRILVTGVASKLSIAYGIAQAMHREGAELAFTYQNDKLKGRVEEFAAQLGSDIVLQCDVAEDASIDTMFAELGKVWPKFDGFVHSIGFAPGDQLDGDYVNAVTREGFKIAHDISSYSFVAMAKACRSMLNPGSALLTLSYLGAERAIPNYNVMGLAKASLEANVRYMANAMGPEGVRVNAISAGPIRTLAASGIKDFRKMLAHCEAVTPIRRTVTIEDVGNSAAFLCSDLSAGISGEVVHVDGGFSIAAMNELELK

crypto-58-AcpP (from UniProt P0A6A8)
Kd: 0.712 µM
